Results from article PMC6646356, “The AAA + ATPase TorsinA polymerizes into hollow helical tubes with 8.5 subunits per turn” (Nature Communications, 2019).
Where a chain is given by its changes, count along the chain named.

B1: MBP-TorsinA (human TorsinA residues 51–332, N-terminally MBP-tagged) (domain or fragment, UniProt O14656 51-332, looked up)
chain: GQKRSLSREALQKDLDDNLFGQHLAKKIILNAVFGFINNPKPKKPLTLSLHGWTGTGKNFVSKIIAENIYEGGLNSDYVHLFVATLHFPHASNITLYKDQLQLWIRGNVSACARSIFIFDEMDKMHAGLIDAIKPFLDYYDLVDGVSYQKAMFIFLSNAGAERITDVALDFWRSGKQREDIKLKDIEHALSVSVFNNKNSGFWHSSLIDRNLIDYFVPFLPLEYKHLKMCIRVEMQSRGYEIDEDIVSRVAEEMTFFPKEERVFSDKGCKTVFTKLDYYYDD
notes: TorsinA, human, residues 51-332; MBP tag is cleavable by human rhinovirus 3C protease; uncleaved in this form; Forms helical polymers of no fixed size; also called MBP-tagged TorsinA; wild-type; source: E. coli LOBSTR(DE3) RIL, purified (amylose resin); not shown: MBP, N-terminal, kept
B2: TorsinA (human, residues 51–332), MBP cleaved with 3C protease (domain or fragment, UniProt O14656 51-332, looked up)
chain: B1 chain
notes: TorsinA, human, residues 51-332; Helical polymer, 8.5 subunits per turn; nucleotide modeled as ATP; also called TorsinA filaments; TorsinA polymers; source: E. coli LOBSTR(DE3) RIL, purified (amylose resin), MBP cleaved with 3C protease during dialysis; not shown: MBP, N-terminal, cleaved
B3: TorsinA H140N (domain or fragment, human, UniProt O14656 51-332, looked up)
chain: B1 chain with H90N
notes: TorsinA, human, residues 51-332; source: E. coli LOBSTR(DE3) RIL, purified (amylose resin)
B4: TorsinA K174A (domain or fragment, human, UniProt O14656 51-332, looked up)
chain: B1 chain with K124A
notes: as for B3
B5: TorsinA K174E (domain or fragment, human, UniProt O14656 51-332, looked up)
chain: B1 chain with K124E
notes: as for B3

Columns and labels:
[1] = target: the molecule itself; test: SEC; gel filtration of affinity-purified MBP-TorsinA; self-association, elution in the void volume
[2] = target: the molecule itself; test: negative-stain electron microscopy; purified TorsinA variants without liposomes, diluted in ATP-containing buffer (HEPES/NaOH pH 8.0, NaCl, 10 mM MgCl2, ATP), 2% uranyl acetate stain; filament formation (self-polymerisation); MBP tag uncleaved or cleaved with 3C protease

Protein	binding result [1]	binding result [2]
B1	binds	
B2		binds
B3		binds
B4		binds
B5		binds
